# Results as given in the Immune Epitope Database (IEDB).
# How the values were obtained:
# HLA-A*01:01 = assay: IEDB peptide-MHC binding, purified MHC/direct/fluorescence; filed as Kd, often an IC50 or EC50 that approximates it; ≥ and ≤ were set here for values at or beyond the usual limits of such assays
# HLA-A*02:01 = assay: as above
# HLA-A*02:03 [1] = assay: as above
# HLA-A*02:11 = assay: as above; settings: source organism: Sudan ebolavirus
# HLA-A*02:12 = assay: as above
# HLA-A*02:19 = assay: as above
# HLA-A*03:01 [2] = assay: as above
# HLA-A*24:03 = assay: as above
# HLA-A*29:02 = assay: as above
# HLA-A*31:01 = assay: as above
# HLA-A*68:02 [3] = assay: as above
# HLA-A*69:01 [4] = assay: as above
# HLA-B*15:01 [5] = assay: as above
# HLA-B*18:01 [6] = assay: as above
# HLA-B*27:05 = assay: as above
# HLA-B*39:01 [7] = assay: as above
# HLA-B*40:01 [8] = assay: as above
# HLA-B*44:02 = assay: as above
# HLA-B*46:01 [9] = assay: as above
# HLA-B*48:01 = assay: as above
# HLA-B*57:01 [10] = assay: as above
# HLA-B*58:01 = assay: as above
# HLA-A*26:01 [11] = assay: IEDB peptide-MHC binding, purified MHC/competitive/fluorescence; filed as Kd, often an IC50 or EC50 that approximates it; ≥ and ≤ were set here for values at or beyond the usual limits of such assays
# HLA-B*15:17 = assay: as above
# HLA-B*27:03 = assay: as above
# HLA-B*51:01 [12] = assay: as above
# HLA-B*51:01 [13] = assay: IEDB peptide-MHC binding, purified MHC/direct/fluorescence; filed as Kd, often an IC50 or EC50 that approximates it; ≥ and ≤ were set here for values at or beyond the usual limits of such assays
# HLA-A*30:01 = assay: IEDB peptide-MHC binding, purified MHC/competitive/radioactivity; filed as Kd, often an IC50 or EC50 that approximates it; ≥ and ≤ were set here for values at or beyond the usual limits of such assays; settings: source organism: Dengue virus 2 Jamaica/1409/1983
# HLA-B*40:01 [14] = assay: as above; settings: source organism: Dengue virus 2 Jamaica/1409/1983
# HLA-A*69:01 [15] = assay: IEDB peptide-MHC binding, purified MHC/competitive/fluorescence; filed as Kd, often an IC50 or EC50 that approximates it; ≥ and ≤ were set here for values at or beyond the usual limits of such assays; settings: source organism: Zaire ebolavirus
# HLA-B*15:01 [16] = assay: as above
# HLA-B*18:01 [17] = assay: as above
# HLA-B*39:01 [18] = assay: as above
# HLA-B*46:01 [19] = assay: as above
# HLA-B*57:01 [20] = assay: as above
# HLA-A*11:01 = assay: IEDB peptide-MHC binding, purified MHC/direct/fluorescence; filed as Kd, often an IC50 or EC50 that approximates it; ≥ and ≤ were set here for values at or beyond the usual limits of such assays; settings: source organism: Yellow fever virus
# HLA-B*07:02 = assay: as above
# HLA-A*26:01 [21] = assay: as above; settings: source organism: Bacillus anthracis str. A0465
# HLA-A*02:03 [22] = assay: IEDB peptide-MHC binding, purified MHC/competitive/fluorescence; filed as Kd, often an IC50 or EC50 that approximates it; ≥ and ≤ were set here for values at or beyond the usual limits of such assays; settings: source organism: Cryptosporidium parvum Iowa II
# HLA-A*03:01 [23] = assay: as above; settings: source organism: Cryptosporidium parvum Iowa II
# HLA-A*68:02 [24] = assay: as above; settings: source organism: Cryptosporidium parvum Iowa II
# [25] = source organism: Sudan virus - Boniface, Sudan,1976
# [26] = source organism: Sudan ebolavirus
# [27] = source organism: Zaire ebolavirus
# [28] = source organism: Yellow fever virus
# [29] = source organism: Giardia lamblia ATCC 50803
# [30] = source organism: Bacillus anthracis str. A0465
# [31] = source organism: Reston ebolavirus - Reston
# [32] = source organism: Cryptosporidium parvum Iowa II
sequence,measurement,setting,value
TMMRHRREL,Kd,HLA-A*01:01; [25],≥ 20 µM
same,Kd,HLA-A*02:01; [25],≥ 20 µM
same,Kd,HLA-A*02:03 [1]; [26],≥ 20 µM
same,Kd,HLA-A*02:11,≥ 20 µM
same,Kd,HLA-A*02:12; [26],≥ 20 µM
same,Kd,HLA-A*02:19; [26],≥ 20 µM
same,Kd,HLA-A*03:01 [2]; [25],≥ 20 µM
same,Kd,HLA-A*24:03; [26],≥ 20 µM
same,Kd,HLA-A*29:02; [25],≥ 20 µM
same,Kd,HLA-A*31:01; [25],≥ 20 µM
same,Kd,HLA-A*68:02 [3]; [26],≥ 20 µM
same,Kd,HLA-A*69:01 [4]; [25],≥ 20 µM
same,Kd,HLA-B*15:01 [5]; [25],≥ 20 µM
same,Kd,HLA-B*18:01 [6]; [25],≥ 20 µM
same,Kd,HLA-B*27:05; [25],≥ 20 µM
same,Kd,HLA-B*39:01 [7]; [25],≥ 20 µM
same,Kd,HLA-B*40:01 [8]; [25],≥ 20 µM
same,Kd,HLA-B*44:02; [25],≥ 20 µM
same,Kd,HLA-B*46:01 [9]; [25],≥ 20 µM
same,Kd,HLA-B*48:01; [25],≥ 20 µM
same,Kd,HLA-B*57:01 [10]; [25],≥ 20 µM
same,Kd,HLA-B*58:01; [25],≥ 20 µM
same,Kd,HLA-A*26:01 [11]; [26],≥ 20 µM
same,Kd,HLA-B*15:17; [26],≥ 20 µM
same,Kd,HLA-B*27:03; [26],≥ 20 µM
same,Kd,HLA-B*51:01 [12]; [26],≥ 20 µM
RVSSDQSAL,Kd,HLA-B*51:01 [13]; source organism: Yellow fever virus 17D,≥ 20 µM
RERLSRMAI,Kd,HLA-B*51:01 [13]; source organism: dengue virus type 2,≥ 20 µM
same,Kd,HLA-A*30:01,0.828 µM
same,Kd,HLA-B*40:01 [14],0.0296 µM
KLWTSISCA,Kd,HLA-A*02:01; source organism: Sudan ebolavirus - Maleo (1979),0.0082 µM
same,Kd,HLA-A*03:01 [2]; [27],≥ 20 µM
same,Kd,HLA-A*24:03; [27],≥ 20 µM
same,Kd,HLA-A*29:02; [27],≥ 20 µM
same,Kd,HLA-A*68:02 [3]; [27],≥ 20 µM
same,Kd,HLA-A*26:01 [11]; [27],≥ 20 µM
same,Kd,HLA-A*69:01 [15],≥ 20 µM
same,Kd,HLA-B*15:01 [16]; [27],≥ 20 µM
same,Kd,HLA-B*15:17; [27],≥ 20 µM
same,Kd,HLA-B*18:01 [17]; [27],≥ 20 µM
same,Kd,HLA-B*27:03; [27],≥ 20 µM
same,Kd,HLA-B*39:01 [18]; [27],≥ 20 µM
same,Kd,HLA-B*46:01 [19]; [27],≥ 20 µM
same,Kd,HLA-B*51:01 [12]; [27],≥ 20 µM
same,Kd,HLA-B*57:01 [20]; [27],≥ 20 µM
TKDTNDNNL,Kd,HLA-A*01:01; [28],≥ 20 µM
same,Kd,HLA-A*02:01; [28],≥ 20 µM
same,Kd,HLA-A*03:01 [2]; [28],≥ 20 µM
same,Kd,HLA-A*11:01,≥ 20 µM
same,Kd,HLA-A*29:02; [28],≥ 20 µM
same,Kd,HLA-A*31:01; [28],≥ 20 µM
same,Kd,HLA-A*69:01 [4]; [28],≥ 20 µM
same,Kd,HLA-B*07:02; [28],≥ 20 µM
same,Kd,HLA-B*15:01 [5]; [28],≥ 20 µM
same,Kd,HLA-B*18:01 [6]; [28],≥ 20 µM
same,Kd,HLA-B*27:05; [28],≥ 20 µM
same,Kd,HLA-B*40:01 [8]; [28],≥ 20 µM
same,Kd,HLA-B*44:02; [28],≥ 20 µM
same,Kd,HLA-B*46:01 [9]; [28],≥ 20 µM
same,Kd,HLA-B*48:01; [28],≥ 20 µM
same,Kd,HLA-B*57:01 [10]; [28],≥ 20 µM
same,Kd,HLA-B*58:01; [28],≥ 20 µM
LTAHYCFLY,Kd,HLA-A*01:01; [29],0.007 µM
same,Kd,HLA-A*29:02; [29],≤ 0.001 µM
RLLRFTGLF,Kd,HLA-A*02:03 [1]; [30],≥ 20 µM
same,Kd,HLA-A*02:19; [30],≥ 20 µM
same,Kd,HLA-A*26:01 [21],≥ 20 µM
same,Kd,HLA-A*68:02 [3]; [30],≥ 20 µM
same,Kd,HLA-A*69:01 [4]; [30],≥ 20 µM
same,Kd,HLA-B*18:01 [6]; [30],≥ 20 µM
same,Kd,HLA-B*39:01 [7]; [30],≥ 20 µM
same,Kd,HLA-B*46:01 [9]; [30],≥ 20 µM
same,Kd,HLA-B*51:01 [13]; [30],≥ 20 µM
SKLRALLTL,Kd,HLA-A*01:01; [31],≥ 20 µM
same,Kd,HLA-A*02:01; [31],≥ 20 µM
same,Kd,HLA-A*02:03 [1]; [27],≥ 20 µM
same,Kd,HLA-A*02:12; [27],≥ 20 µM
same,Kd,HLA-A*03:01 [2]; [31],≥ 20 µM
same,Kd,HLA-A*24:03; [27],≥ 20 µM
same,Kd,HLA-A*29:02; [31],≥ 20 µM
same,Kd,HLA-A*31:01; [31],≥ 20 µM
same,Kd,HLA-A*68:02 [3]; [27],≥ 20 µM
same,Kd,HLA-A*69:01 [4]; [31],≥ 20 µM
same,Kd,HLA-B*07:02; [31],≥ 20 µM
same,Kd,HLA-B*15:01 [5]; [31],≥ 20 µM
same,Kd,HLA-B*18:01 [6]; [31],≥ 20 µM
same,Kd,HLA-B*39:01 [7]; [31],0.618 µM
same,Kd,HLA-B*40:01 [8]; [31],≥ 20 µM
same,Kd,HLA-B*44:02; [31],≥ 20 µM
same,Kd,HLA-B*46:01 [9]; [31],≥ 20 µM
same,Kd,HLA-B*57:01 [10]; [31],≥ 20 µM
same,Kd,HLA-B*58:01; [31],≥ 20 µM
same,Kd,HLA-A*26:01 [11]; [27],≥ 20 µM
same,Kd,HLA-B*15:17; [27],≥ 20 µM
same,Kd,HLA-B*27:03; [27],≥ 20 µM
same,Kd,HLA-B*51:01 [12]; [27],≥ 20 µM
KSWLVHWSL,Kd,HLA-A*02:03 [22],≥ 20 µM
same,Kd,HLA-A*03:01 [23],≥ 20 µM
same,Kd,HLA-A*26:01 [11]; [32],≥ 20 µM
same,Kd,HLA-A*68:02 [24],≥ 20 µM
same,Kd,HLA-B*15:01 [16]; [32],≥ 20 µM
same,Kd,HLA-B*18:01 [17]; [32],≥ 20 µM
same,Kd,HLA-B*27:03; [32],≥ 20 µM
same,Kd,HLA-B*39:01 [18]; [32],≥ 20 µM
same,Kd,HLA-B*46:01 [19]; [32],≥ 20 µM
same,Kd,HLA-B*57:01 [20]; [32],0.0328 µM
